The text below walks through data of patent US20060218667A1.

The test concerns the target porcine trypsin (porcine) (UniProt P00761). Nature of the test: cell-based or functional assay.
Sequence of UniProt P00761 (P00761 9-231 limits assumed): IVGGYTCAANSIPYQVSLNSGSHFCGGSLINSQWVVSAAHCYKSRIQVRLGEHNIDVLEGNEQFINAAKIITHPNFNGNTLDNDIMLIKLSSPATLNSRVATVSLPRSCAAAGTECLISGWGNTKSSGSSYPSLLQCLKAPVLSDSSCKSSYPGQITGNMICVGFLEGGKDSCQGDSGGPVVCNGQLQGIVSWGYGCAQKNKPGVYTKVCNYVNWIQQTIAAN
As for “r-Aprotinin-L (aprotinin variant with Met 52 replaced by leucine)”, the KIU/mg Protein (specific activity) (KIU/mg protein) amounted to 7150. In the case of “r-Aprotinin-Q (aprotinin variant with Met 52 replaced by glutamine)” it was 7220; in that of “r-Aprotinin-V (aprotinin variant with Met 52 replaced by valine)”, 7160.
